# The supplement of paper PMC7877785
# ± gives the uncertainty stated by the source.
# Assay: self-splicing fitness, log relative to wild type (ln ratio); higher = more splicing; Tetrahymena group I intron in knt gene, E. coli kanamycin selection, DiMSum; sequences stand for … in CUCUCU…GGAGGGAAAAGUUAUCAGGCAUGCACCUGGUAGCUAGUCUUUAAACCAAUAGAUUGCAUCGGUUUAAAAGGCAAGACCGUCAAAUUGCGGGAAAGGGGUCAACAGCCGUUCAGUACCAAGUCUCAGGGGAAACUUUGAGAUGGCCUUGCAAAGGGUAUGGUAAUAAGCUGACGGACAUGGUCCUAACCACGCAGCCAAGUCCUAAGUCAACAGAUCUUCUGUUGAUAUGGAUGCAGUUCACAGACUAAAUGUCGGUCGGGGAAGAUGUAUUCUUCUCAUAAGAUAUAGUCGGACCUCUCCUUAAUGGGAGCUAGCGGAUGAAGUGAUGCAACACUGGAGCCGCUGGGAACUAAUUUGUAUGCGAAAGUAUAUUGAUUAGUUUUGGAGUACUCGUGGUCG
# Method in brief: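 Pooled colonies went to amplicon sequencing on an Illumina HiSeq 2500 after six replicate transformations. The plates were LB agar with 100 μg/mL carbenicillin, 50 μM IPTG and 0.2% rhamnose, with or without 25 μg/mL kanamycin, incubated overnight at 37°C or 30°C. The E. coli BL21(DE3) library had all eight P1ex-region intron nucleotides randomised, the intron placed in the knt kanamycin-resistance gene on pET-22b(+). DiMSum fitness is the error-weighted combination of replicate fold changes, kanamycin against none, normalised to wild type.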
Sequence,self-splicing fitness (ln) (30 °C),self-splicing fitness (ln) (37 °C)
AUCUAGCAAUAUUACGACAU,0.0957 ± 0.013,0.273 ± 0.032
AUCUAGCAAUAUUACGAUAC,-3.21 ± 0.35,-2.27 ± 0.29
AUCUAGCAAUAUUACGAUCU,-1.03 ± 0.13,0.148 ± 0.15
AUCUAGCAAUAUUACGCAGG,-2.97 ± 0.3,-1.07 ± 0.18
AUCUAGCAAUAUUACGCGCG,-0.762 ± 0.095,-0.257 ± 0.12
AUCUAGCAAUAUUACGCGGA,-1.69 ± 0.26,-2.53 ± 0.23
AUCUAGCAAUAUUACGCGGC,-3.15 ± 0.38,-2.92 ± 0.33
AUCUAGCAAUAUUACGCUAG,-3.91 ± 0.27,-3.5 ± 0.31
AUCUAGCAAUAUUACGCUCA,-0.577 ± 0.17,-0.0187 ± 0.2
AUCUAGCAAUAUUACGCUUG,-1.85 ± 0.12,-1.36 ± 0.14
AUCUAGCAAUAUUACGGAGC,-3.43 ± 0.19,-1.32 ± 0.14
AUCUAGCAAUAUUACGGAUC,-3.03 ± 0.17,-2.33 ± 0.24
AUCUAGCAAUAUUACGGCAG,-2.04 ± 0.17,-0.157 ± 0.16
AUCUAGCAAUAUUACGGUCU,-0.756 ± 0.078,-0.908 ± 0.098
AUCUAGCAAUAUUACGGUUU,-1.13 ± 0.13,-0.53 ± 0.13
AUCUAGCAAUAUUACGUAAU,-1.28 ± 0.098,-1.37 ± 0.12
AUCUAGCAAUAUUACGUAGG,-1.96 ± 0.14,-0.273 ± 0.21
AUCUAGCAAUAUUACGUAUA,-2.84 ± 0.33,-1.91 ± 0.3
AUCUAGCAAUAUUACGUAUC,-3.29 ± 0.24,-1.74 ± 0.39
AUCUAGCAAUAUUACGUCGA,-1.39 ± 0.11,-0.769 ± 0.12
AUCUAGCAAUAUUACGUGAC,-3.35 ± 0.26,-1.14 ± 0.2
AUCUAGCAAUAUUACGUGAU,-1.16 ± 0.14,-2.25 ± 0.32
AUGAAGCAAUAUUACGAAAG,-1.77 ± 0.11,-0.735 ± 0.16
AUGAAGCAAUAUUACGAGUC,,-2.69 ± 0.24
AUGAAGCAAUAUUACGAGUU,-2.19 ± 0.096,-1.15 ± 0.1

Sequence,self-splicing fitness (ln) (30 °C),self-splicing fitness (ln) (37 °C)
AUGAAGCAAUAUUACGAUAA,-0.381 ± 0.077,-0.287 ± 0.085
AUGAAGCAAUAUUACGAUGU,0.274 ± 0.092,-0.284 ± 0.099
AUGAAGCAAUAUUACGCAAA,-2.25 ± 0.17,-1.31 ± 0.17
AUGAAGCAAUAUUACGCACG,-1.09 ± 0.1,0.541 ± 0.14
AUGAAGCAAUAUUACGCCAC,-0.249 ± 0.39,-1.9 ± 0.41
AUGAAGCAAUAUUACGCCAG,-0.726 ± 0.13,0.273 ± 0.18
AUGAAGCAAUAUUACGCCCG,-0.353 ± 0.25,-0.729 ± 0.38
AUGAAGCAAUAUUACGCCUA,0.118 ± 0.087,-0.0119 ± 0.14
AUGAAGCAAUAUUACGCGGA,-0.591 ± 0.1,-0.105 ± 0.12
AUGAAGCAAUAUUACGCUAC,-2.06 ± 0.094,-1.86 ± 0.15
AUGAAGCAAUAUUACGCUGU,-2.02 ± 0.12,-0.999 ± 0.13
AUGAAGCAAUAUUACGGAGG,-2.82 ± 0.12,-0.72 ± 0.12
AUGAAGCAAUAUUACGGGGC,-4.78 ± 0.26,-2.48 ± 0.2
AUGAAGCAAUAUUACGUAAU,-1.57 ± 0.075,-0.42 ± 0.094
AUGAAGCAAUAUUACGUAGA,-2.86 ± 0.18,-1.84 ± 0.19
AUGAAGCAAUAUUACGUAUU,-1.52 ± 0.081,-1.23 ± 0.099
AUGAAGCAAUAUUACGUCAA,-0.911 ± 0.064,-0.148 ± 0.076
AUGAAGCAAUAUUACGUGCC,-0.735 ± 0.12,-0.196 ± 0.11
AUGAAGCAAUAUUACGUGCU,-1.69 ± 0.12,-1.39 ± 0.12
AUGCAGCAAUAUUACGAGUC,-3.73 ± 0.25,-2.32 ± 0.22
AUGCAGCAAUAUUACGAUAU,-1.04 ± 0.054,0.0687 ± 0.07
AUGCAGCAAUAUUACGAUCU,-0.511 ± 0.084,0.285 ± 0.13
AUGCAGCAAUAUUACGCCAU,-1.53 ± 0.18,-2.28 ± 0.35
AUGCAGCAAUAUUACGCCCU,-0.387 ± 0.22,0.0709 ± 0.25
AUGCAGCAAUAUUACGCCGG,-1.72 ± 0.15,-0.877 ± 0.21

Sequence,self-splicing fitness (ln) (30 °C),self-splicing fitness (ln) (37 °C)
AUGCAGCAAUAUUACGCCUA,-0.128 ± 0.1,-0.513 ± 0.12
AUGCAGCAAUAUUACGCGAC,-2.18 ± 0.17,-0.372 ± 0.17
AUGCAGCAAUAUUACGCGAG,-3.82 ± 0.17,-0.707 ± 0.11
AUGCAGCAAUAUUACGCGGG,-2.94 ± 0.17,-2.49 ± 0.17
AUGCAGCAAUAUUACGGAAU,-2.37 ± 0.088,-0.752 ± 0.093
AUGCAGCAAUAUUACGGCAG,-0.985 ± 0.11,-1.29 ± 0.15
AUGCAGCAAUAUUACGGCGC,-0.143 ± 0.17,0.107 ± 0.18
AUGCAGCAAUAUUACGGCUC,-0.408 ± 0.1,-0.0582 ± 0.13
AUGCAGCAAUAUUACGGGAC,-2.82 ± 0.17,-2.74 ± 0.19
AUGCAGCAAUAUUACGGGAG,-3.13 ± 0.17,-2.11 ± 0.13
AUGCAGCAAUAUUACGGGCU,-2.25 ± 0.078,-1.07 ± 0.1
AUGCAGCAAUAUUACGGUGG,-3.96 ± 0.18,-1.86 ± 0.12
AUGCAGCAAUAUUACGUAAA,-1.44 ± 0.092,-1.14 ± 0.13
AUGCAGCAAUAUUACGUAAG,-0.932 ± 0.062,-0.743 ± 0.077
AUGCAGCAAUAUUACGUAAU,-0.641 ± 0.05,-0.479 ± 0.066
AUGCAGCAAUAUUACGUCAC,,-1.09 ± 0.16
AUGCAGCAAUAUUACGUGUA,-2.34 ± 0.11,-0.835 ± 0.091
AUGGAGCAAUAUUACGAAAA,,-0.761 ± 0.38
AUGGAGCAAUAUUACGAAAC,-2.72 ± 0.4,
AUGGAGCAAUAUUACGAAAU,-1.92 ± 0.23,
AUGGAGCAAUAUUACGACAU,-1.36 ± 0.017,-0.784 ± 0.035
AUGGAGCAAUAUUACGACGG,,1.8 ± 0.38
AUGGAGCAAUAUUACGACUU,-1.73 ± 0.1,-1.08 ± 0.13
AUGGAGCAAUAUUACGAGCA,-2.33 ± 0.46,-1.17 ± 0.49
AUGGAGCAAUAUUACGAGUU,-4.04 ± 0.43,-3.03 ± 0.22

Sequence,self-splicing fitness (ln) (30 °C),self-splicing fitness (ln) (37 °C)
AUGGAGCAAUAUUACGAUCG,,-1.1 ± 0.42
AUGGAGCAAUAUUACGAUUA,-1.13 ± 0.36,
AUGGAGCAAUAUUACGCACA,-1.57 ± 0.16,-0.961 ± 0.21
AUGGAGCAAUAUUACGCAGC,-2.14 ± 0.23,-2.54 ± 0.33
AUGGAGCAAUAUUACGCAUC,-3.74 ± 0.14,-3.29 ± 0.26
AUGGAGCAAUAUUACGCCAG,-2.26 ± 0.35,
AUGGAGCAAUAUUACGCCAU,-4.27 ± 0.46,-2.17 ± 0.34
AUGGAGCAAUAUUACGCUCA,-1.46 ± 0.17,-1.17 ± 0.18
AUGGAGCAAUAUUACGCUCG,-1.58 ± 0.14,-0.952 ± 0.18
AUGGAGCAAUAUUACGGAAC,,-1.21 ± 0.42
AUGGAGCAAUAUUACGGAAG,-3.24 ± 0.38,
AUGGAGCAAUAUUACGGACG,-2.44 ± 0.32,-0.988 ± 0.3
AUGGAGCAAUAUUACGGAGA,-2.93 ± 0.44,-1.21 ± 0.32
AUGGAGCAAUAUUACGGGUU,-2.3 ± 0.43,-3.16 ± 0.4
AUGGAGCAAUAUUACGGUUG,-4.12 ± 0.3,-2.21 ± 0.23
AUGGAGCAAUAUUACGUCAA,-1.77 ± 0.35,-0.821 ± 0.36
AUGGAGCAAUAUUACGUUUA,-2.59 ± 0.28,-1.83 ± 0.27
AUGUAGCAAUAUUACGAACU,-0.642 ± 0.12,0.131 ± 0.15
AUGUAGCAAUAUUACGAAGC,-3.22 ± 0.37,0.239 ± 0.23
AUGUAGCAAUAUUACGAAUU,-2 ± 0.12,-1.84 ± 0.16
AUGUAGCAAUAUUACGAGAC,-3.13 ± 0.31,-2.09 ± 0.2
AUGUAGCAAUAUUACGAGCG,-1.23 ± 0.11,-1.8 ± 0.14
AUGUAGCAAUAUUACGAUGA,-0.624 ± 0.15,-1.66 ± 0.15
